Source: PMC10553838, “Functional and structural insights into the multi-step activation and catalytic mechanism of bacterial ExoY nucleotidyl cyclase toxins bound to actin-profilin” (PLOS Pathogens, 2023)

What was measured:
[1] = target: Alexa-488-labelled G-actin-ATP (rabbit) (UniProt P68135); test: AUC
[2] = target: α-actin from rabbit skeletal muscle, monomeric (G-actin) (rabbit) (UniProt P68135); test: pyrene-actin seeded elongation rates with profilin, fitted with G-actin sequestration by Vn-ExoY
[3] = target: α-actin from rabbit skeletal muscle, monomeric (G-actin) (rabbit) (UniProt P68135); test: pyrene-actin seeded elongation rates fitted to a G-actin sequestration model; initial barbed-end (spectrin-actin seeds) and pointed-end (gelsolin-actin seeds) growth rates, 1.5 μM G-actin-ATP-Mg, increasing Vn-ExoY^DM; 28 mM KCl, 2 mM MgCl2, 10 mM Tris-HCl pH 7.5, 2 mM ATP, 1 mM DTT; 25°C; KD from the fit of Eq 1 and 2

## Trx-Vn-ExoY (Vn-ExoY fused to Thioredoxin) (domain or fragment)
[1]
  Kd: 11.7 µM
  stoichiometry N: 1

## Vn-ExoY^3412-3873 (wild type) (domain or fragment)
[2]
  Kd: 12 to 14 µM

## Vn-ExoY^DM (Vn-ExoY^412-873 K528M/K535I, inactive double mutant) (domain or fragment)
[3]
  Kd: 21 µM
  stoichiometry N: 1
